According to patent publication US20250138018A1 (NEXTPOINT THERAPEUTICS, published 2025):

T1: CD20 on CD20+ Raji cells (UniProt P11836 1-297, limits assumed)
T1 construct: whole, on cells; Endogenous CD20 of the Raji cell line; also called TAA (CD20)
T1 sequence (looked up): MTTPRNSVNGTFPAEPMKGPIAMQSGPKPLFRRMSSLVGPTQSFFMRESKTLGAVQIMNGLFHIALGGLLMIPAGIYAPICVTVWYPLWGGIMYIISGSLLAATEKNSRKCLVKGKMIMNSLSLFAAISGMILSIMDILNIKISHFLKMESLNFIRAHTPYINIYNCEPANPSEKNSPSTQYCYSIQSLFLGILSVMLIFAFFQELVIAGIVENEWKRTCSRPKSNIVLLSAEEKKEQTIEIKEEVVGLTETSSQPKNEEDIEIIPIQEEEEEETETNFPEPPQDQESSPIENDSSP

B1: TK20-17C7-01 anti-TMIGD2/anti-CD20 bispecific antibody (bispecific antibody, human IgG1, kappa, L234A L235A)
heavy: not shown
light: QIVLSQSPAILSASPGEKVTMTCRASSSVSYIHWFQQKPGSSPKPWIYATSNLASGVPVRFSGSGSGTSYSLTISRVEAEDAATYYCQQWTSNPPTFGGGTKLEIKRTVAAPSVFIFPPSDEQLKSGTASVVCLLNNFYPREAKVQWKVDNALQSGNSQESVTEQDSKDSTYSLSSTLTLSKADYEKHKVYACEVTHQGLSSPVTKSFNRGEC
notes: Tetravalent Morrison format; copies: 2 + 2
B2: TK20-39C9-2134 anti-TMIGD2/anti-CD20 bispecific antibody (bispecific antibody, human IgG1, kappa, L234A L235A)
heavy: not shown
light: QIVLSQSPAILSASPGEKVTMTCRASSSVSYIHWFQQKPGSSPKPWIYATSNLASGVPVRFSGSGSGTSYSLTISRVEAEDAATYYCQQWTSNPPTFGGGTKLEIKRTVAAPSVFIFPPSDEQLKSGTASVVCLLNNFYPREAKVQWKVDNALQSGNSQESVTEQDSKDSTYSLSSTLTLSKADYEKHKVYACEVTHQGLSSPVTKSFNRGEC
notes: as for B1
B3: TK20-29F8-16 anti-TMIGD2/anti-CD20 bispecific antibody (bispecific antibody, human IgG1, kappa, L234A L235A)
heavy: not shown
light: QIVLSQSPAILSASPGEKVTMTCRASSSVSYIHWFQQKPGSSPKPWIYATSNLASGVPVRFSGSGSGTSYSLTISRVEAEDAATYYCQQWTSNPPTFGGGTKLEIKRTVAAPSVFIFPPSDEQLKSGTASVVCLLNNFYPREAKVQWKVDNALQSGNSQESVTEQDSKDSTYSLSSTLTLSKADYEKHKVYACEVTHQGLSSPVTKSFNRGEC
notes: as for B1

Biological target: T1, CD20 on CD20+ Raji cells
Test: Raji co-culture with TMIGD2-Jurkat NFAT reporter cells; binding told in words, not measured directly
Protocol: Raji cells (2×10⁴) were plated in a 96-well white flat bottom tissue culture plate with anti-TMIGD2/anti-CD20 bispecific antibodies (TK20-17C7-01, TK20-29F8-16, and TK20-39C9-2134) in 50 μl R10 medium (RPMI 1640+10% Fetal bovine serum) at 3-fold serial dilutions ranging from 10-0.5 μg/mL. An anti-CD20 (IgG1 LALA) was included as a negative control. The cells were incubated at 37° C. for 30 minutes. TMIGD2-Jurkat NFAT reporter cells (4×10⁴) were added to each well with 1 μg/mL anti-CD3 antibody (OKT3) in 50 μl R10 medium. Cells were incubated at 37° C. for 6 hours and 100 ul of Bio-Glo™ luciferase assay reagent (Promega®, G7940) was added to each well. Luciferase activity was measured on a plate reader.

Binder	binding result
B1	binds
B2	binds
B3	binds
